Paper PMC3985815

How the values were obtained:
Assay in all cases: purified protein
purified protein [1] = substrate: CNc1ncnc2c1ncn2[C@@H]1O[C@H](COP(=O)(O)O)[C@@H](OP(=O)(O)O)[C@H]1O; conditions: 25 mM HEPES, 250 mM KCl, pH 7.5, 30 °C
purified protein [2] = substrate: O=c1[nH]cnc2c1ncn2[C@H]1C[C@H](OP(=O)(O)O)[C@@H](COP(=O)(O)O)O1; conditions: 25 mM HEPES, 250 mM KCl, pH 7.5, 30 °C
purified protein [3] = substrate: Nc1ncnc2c1ncn2[C@@H]1O[C@H](COP(=O)(O)O[C@H]2[C@@H](O)[C@H](n3cnc4c(N)ncnc43)O[C@@H]2COP(=O)(O)O)[C@@H](O)[C@H]1O; conditions: 50 mM HEPES, 250 mM KCl, 5.0 mM MgCl2, pH 7.5
purified protein [4] = substrate: Cc1cn([C@H]2C[C@H](OP(=O)(O)O)[C@@H](COP(=O)(O)O)O2)c(=O)[nH]c1=O; conditions: 25 mM HEPES, 250 mM KCl, pH 7.5, 30 °C
purified protein [5] = substrate: Nc1nc2c(ncn2[C@H]2C[C@H](OP(=O)(O)O)[C@@H](COP(=O)(O)O)O2)c(=O)[nH]1; conditions: 25 mM HEPES, 250 mM KCl, pH 7.5, 30 °C
purified protein [6] = substrate: O=c1ccn([C@H]2C[C@H](OP(=O)(O)O)[C@@H](COP(=O)(O)O)O2)c(=O)[nH]1; conditions: 25 mM HEPES, 250 mM KCl, pH 7.5, 30 °C
purified protein [7] = substrate: Nc1ncnc2c1ncn2[C@H]1C[C@H](OP(=O)(O)O)[C@@H](COP(=O)(O)O)O1; conditions: 25 mM HEPES, 250 mM KCl, pH 7.5, 30 °C
purified protein [8] = substrate: Nc1ccn([C@H]2C[C@H](OP(=O)(O)O)[C@@H](COP(=O)(O)O)O2)c(=O)n1; conditions: 25 mM HEPES, 250 mM KCl, pH 7.5, 30 °C
purified protein [9] = substrate: Nc1ncnc2c1ncn2[C@@H]1O[C@H](COP(=O)(O)O)[C@@H](OP(=O)(O)O)[C@H]1O; conditions: 25 mM HEPES, 250 mM KCl, pH 7.5, 30 °C

B1: Cv1693 (Chromobacterium violaceum ATCC 12472) (protein)
chain: MANIDLHFHSRTSDGALTPTEVIDRAAARAPALLALTDHDCTGGLAEAAAAAARRGIPFLNGVEVSVSWGRHTVHIVGLGIDPAEPALAAGLKSIREGRLERARQMGASLEAAGIAGCFDGAMRWCDNPEMISRTHFARHLVDSGAVKDMRTVFRKYLTPGKPGYVSHQWASLEDAVGWIVGAGGMAVIAHPGRYDMGRTLIERLILDFQAAGGQGIEVASGSHSLDDMHKFALHADRHGLYASSGSDFHAPGEGGRDVGHTEDLPPICRPIWRELEARILRPAD
Km (purified protein [1]): 5.4 ± 1.0 µM | kcat (purified protein [1]): 11.6 ± 0.4 s⁻¹ | kcat/Km (purified protein [1]): 2.1e+06 ± 400000 M⁻¹ s⁻¹ | Km (purified protein [2]): 22 ± 3 µM | kcat (purified protein [2]): 4.3 ± 0.2 s⁻¹ | kcat/Km (purified protein [2]): 190000 ± 30000 M⁻¹ s⁻¹ | Km (purified protein [3]): 1.6 ± 0.2 µM | kcat (purified protein [3]): 0.05 ± 0.01 s⁻¹ | kcat/Km (purified protein [3]): 32000 ± 3000 M⁻¹ s⁻¹ | Km (purified protein [4]): 9.3 ± 1.0 µM | kcat (purified protein [4]): 3.3 ± 0.1 s⁻¹ | kcat/Km (purified protein [4]): 360000 ± 40000 M⁻¹ s⁻¹ | Km (purified protein [5]): 5.2 ± 0.4 µM | kcat (purified protein [5]): 4.2 ± 0.1 s⁻¹ | kcat/Km (purified protein [5]): 790000 ± 60000 M⁻¹ s⁻¹ | Km (purified protein [6]): 29 ± 4 µM | kcat (purified protein [6]): 5.2 ± 0.2 s⁻¹ | kcat/Km (purified protein [6]): 180000 ± 20000 M⁻¹ s⁻¹ | Km (purified protein [7]): 10.2 ± 0.9 µM | kcat (purified protein [7]): 7.1 ± 0.2 s⁻¹ | kcat/Km (purified protein [7]): 700000 ± 60000 M⁻¹ s⁻¹ | Km (purified protein [8]): 26 ± 3 µM | kcat (purified protein [8]): 9.4 ± 0.3 s⁻¹ | kcat/Km (purified protein [8]): 360000 ± 50000 M⁻¹ s⁻¹ | Km (purified protein [9]): 15.5 ± 2.4 µM | kcat (purified protein [9]): 22 ± 1 s⁻¹ | kcat/Km (purified protein [9]): 1.4e+06 ± 200000 M⁻¹ s⁻¹
